One substance from paper PMC6398215 can be followed below.

This assay deals with IgG. The assay is described as follows: not stated; equilibrium affinity of recombinant CHO FcγRIIIa for IgG, before and after enzymatic desialylation; method and conditions only in the supplement (Fig. S16).

For the substance “enzymatically desialylated recombinant FcγRIIIa expressed in CHO cells (from UniProt P08637 17-254) (receptor)”, the fold increase in equilibrium affinity against the untreated FcγRIIIa was 2 fold.
